The test addresses T1, HiLyte Fluor 488-labelled Aβ42 oligomers (human, UniProt P05067 672-713, HiLyte Fluor 488 label (position not given)).
T1 construct: amyloid beta-peptide 1-42 (Aβ42), human, the cut product of the amyloid precursor protein; Oligomeric species in the 6 hour aggregation mixture, told from monomers by photobleaching; also called Aβ oligomers; oligomeric Aβ; source: synthetic peptide, bought: AnaSpec; aggregated at 0.5 μM in PBS pH 7.4 for 6 hours
Briefly: single-molecule TIRF two-colour coincidence detection; HiLyte Fluor 488 Aβ42 aggregated 6 hours at 0.5 μM in PBS pH 7.4, dye-labelled sTREM2 added and imaged on slides; monomers told from oligomers by photobleaching; chance coincidence subtracted. The conditions noted are these: both partners purified.

Experimental findings from publication doi:10.1101/2020.12.03.409995, “Wild-type sTREM2 blocks Aβ aggregation and neurotoxicity, while the Alzheimer’s R47H mutant does the opposite” (bioRxiv, 2020) are described below.

B1: dye-labelled wild-type sTREM2 (TREM2 ectodomain) for single-molecule TIRF (domain or fragment, UniProt Q9NZC2 19-143, looked up)
chain: HNTTVFQGVAGQSLQVSCPYDSMKHWGRRKAWCRQLGEKGPCQRVVSTHNLWLLSFLRRWNGSTAITDDTLGGTLTITLRNLQPHDAGLYQCQSLHGSEADTLRKVLVEVLADPLDHRDAGDLWF
modifications: fluorescent dye label: TAMRA in the results, AF647 in the methods (position not given)
notes: TREM2 residues 19-143, wild type; The labelled form of m10; also called TAMRA-dye labelled sTREM2; AF647-TREM2; source: Freestyle 293-F cells, transfected (pHLSec), purified from conditioned medium (IMAC, gel filtration), dye-labelled
For B1, the binding result is on record as “binds”.
